Test results: patent publication US20020146411A1, “Anticoagulant agents useful in treatment of thrombosis” (SmithKline Beecham Corporation, priority 1996, published 2002)
Numbering of substitutions follows the chain as printed. Entries after “also recorded” stand apart in the source; their conditions may differ. Blank lines part the entries; values can stand above or below the molecule they belong to.

Assays:
BC2 antibody = assay: BiaCore binding of Factor IX/Factor VII constructs to immobilized BC2; conditions: 200 nM construct, 25 mM MOPS pH 7.4, 0.15 M NaCl, 5 mM CaCl2
Procedure: A library of chimeric constructs composed of sequences of Factor IX spliced into the framework of the homologous protein Factor VII was constructed and used to map the epitope for the Factor IX BC2 mAb. See Cheung et al., Thromb. Res. 80, 419-427 (1995). Binding was measured using a BiaCore 2000 surface plasmon resonance device. The BC2 antibody was coupled directly to the chip using the NHS/EDC reaction. Binding was measured by 2 min of contact time at 20 uL/min with 200 nM of each of the given constructs in 25 mM MOPS, pH 7.4, 0.15 M NaCl, 5 mM CaCl2. Dissociation was monitored for 3 min using the same buffer with no protein. No binding was detected to the wild type construct in the presence of 50 mM EDTA.

[1] = target: T1, Recombinant human Factor IX (rhFIX) (Homo sapiens, UniProt P00740, T194A); assay: BIAcore kinetics of Factor IX binding to mAb on protein A surface; conditions: rhFIX 49 nM, 5 mM Ca2+, biosensor
T1 construct: purchased Genetics Institute
Procedure: The kinetics of Factor IX binding to SB 249417 was assessed by BIAcore analysis with antibody bound to an immobilized protein A surface. Recombinant human Factor IX (rhFIX, Genetics Institute) at 49 nM was used and measurements performed in the presence of 5 mM Ca^2+. The interaction was characterized by rapid association, kass 2.0×10^5 M^−1 s^−1 and relatively slow off-rate, kdiss=4.1×10^−4 s^−1.

[2] = system: rat carotid artery thrombosis; assay: Rat carotid artery thrombosis model, humanized mAbs, Example 8; format: in vivo; conditions: 3.0 mg/kg i.v. bolus, 60 minutes after onset of injury
Procedure: In order to evaluate the efficacy of humanized anti-Factor IX antibodies in prevention of arterial thrombosis, the rat carotid artery thrombosis model as described above in Example 3 was used. Baseline parameters were established for carotid blood flow, arterial pressure, heart rate, vessel patency and activated partial thromboplastin time (aPTT). Fifteen minutes thereafter, carotid injury was effected for […]. The parameters were determined 60 minutes after onset of carotid injury. Carotid thrombus was also extracted from the carotid artery and weighed.
All agents were administered intravenously 15 minutes before the onset of carotid injury. The following treatments were examined and compared to the anti-Factor IX mAb BC2.

T1 sequence (P00740 47-461 T194A): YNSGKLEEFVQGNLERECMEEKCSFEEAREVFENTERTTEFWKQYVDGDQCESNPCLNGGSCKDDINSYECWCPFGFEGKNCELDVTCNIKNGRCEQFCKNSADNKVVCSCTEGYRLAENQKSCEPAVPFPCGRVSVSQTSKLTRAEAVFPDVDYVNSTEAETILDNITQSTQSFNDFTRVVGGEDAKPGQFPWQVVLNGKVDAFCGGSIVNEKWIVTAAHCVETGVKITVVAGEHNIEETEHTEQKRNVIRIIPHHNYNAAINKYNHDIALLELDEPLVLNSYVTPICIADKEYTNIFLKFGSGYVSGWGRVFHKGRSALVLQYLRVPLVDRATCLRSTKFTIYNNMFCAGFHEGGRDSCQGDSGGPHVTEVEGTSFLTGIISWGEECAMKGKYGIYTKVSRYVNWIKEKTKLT

B1: IX LC/VII HC: construct containing the Factor IX light chain and Factor VII heavy chain (protein)
chain: YNSGKLEEFVQGNLERECMEEKCSFEEAREVFENTERTTEFWKQYVDGDQCESNPCLNGGSCKDDINSYECWCPFGFEGKNCELDVTCNIKNGRCEQFCKNSADNKVVCSCTEGYRLAENQKSCEPAVPFPCGRVSVSQTSKLTRIVGGKVCPKGECPWQVLLLVNGAQLCGGTLINTIWVVSAAHCFDKIKNWRNLIAVLGEHDLSEHDGDEQSRRVAQVIIPSTYVPGTTNHDIALLRLHQPVVLTDHVVPLCLPERTFSERTLAFVRFSLVSGWGQLLDRGATALELMVLNVPRLMTQDCLQQSRKVGDSPNITEYMFCAGYSDGSKDSCKGDSGGPHATHYRGTWYLTGIVSWGQGCATVGHFGVYTRVSQYIEWLQKLMRSEPRPGVLLRAPFP
- Degree of Binding to BC2 (BC2 antibody): exhibit binding to BC2; also recorded: Binds

B2: Chf9: mouse-human chimeric antibody directed against human Factor IX, chains F9CHLC and F9CHHC with BC2 variable regions (antibody)
heavy: QIQLVQSGPELKKPGETVKISCKASGYTFTNYGMNWVKQAPGKGLKWMGWINTRNGKSTYVDDFKGRFAFSLESSASTANLQIDNLKDEDTATYFCTREGNMDGYFPFTYWGQGTLVTVSA
light: QIVLSQSPAILSASPGEKVTMTCRASSSVNYMHWYQQKPGSSPKPWIYATSNLASGVPARFSGSGSGTSYSLTISRVEAEDAATYYCQQWSINPRTFGGGTKLEIK
- kass [1]: 240000 M⁻¹ s⁻¹
- kdiss [1]: 0.0003 s⁻¹

B8: IX-A/VII: construct with the Factor IX gla and aromatic stack domains in Factor VII (protein)
chain: YNSGKLEEFVQGNLERECMEEKCSFEEAREVFENTERTTEFWKQYVDGDQCASSPCQNGGSCKDQLQSYICFCLPAFEGRNCETHKDDQLICVNENGGCEQYCSDHTGTKRSCRCHEGYSLLADGVSCTPTVEYPCGKIPILEKRNASKPQGRIVGGKVCPKGECPWQVLLLVNGAQLCGGTLINTIWVVSAAHCFDKIKNWRNLIAVLGEHDLSEHDGDEQSRRVAQVIIPSTYVPGTTNHDIALLRLHQPVVLTDHVVPLCLPERTFSERTLAFVRFSLVSGWGQLLDRGATALELMVLNVPRLMTQDCLQQSRKVGDSPNITEYMFCAGYSDGSKDSCKGDSGGPHATHYRGTWYLTGIVSWGQGCATVGHFGVYTRVSQYIEWLQKLMRSEPRPGVLLRAPFP
- Degree of Binding to BC2 (BC2 antibody): exhibit binding to BC2; also recorded: Binds

Now from value to molecule, other results behind:

- kass [1]: 650000 M⁻¹ s⁻¹
- kdiss [1]: 0.0028 s⁻¹
B3: SB 249413: humanized anti-Factor IX mAb, heavy chain F9HZHC 1-0 (SEQ ID NO: 31), light chain F9HZLC 1-0 (SEQ ID NO: 44) (antibody, V domains shown)
VH: QVQLVQSGSELKKPGASVKVSCKASGYTFTNYGMNWVRQAPGQGLEWMGWINTRNGKSTYVDDFKGRFVFSLDTSVSTAYLQISSLKADDTAVYYCAREGNMDGYFPFTYWGQGTLVTVSS
VL: EIVLTQSPATLSLSPGERATLSCRASSSVNYMHWYQQRPGQAPRLLIYATSNLASGIPARFSGSGSGTDFTLTISSLEPEDFAVYYCQQWSINPRTFGGGTKVEIKR
- effect on aPTT (FIG. 8) [2]: modest effect

- kass [1]: 520000 M⁻¹ s⁻¹
- kdiss [1]: 0.00041 s⁻¹
B4: SB 249416: humanized anti-Factor IX mAb, heavy chain F9HZHC 1-1 (SEQ ID NO: 52), light chain F9HZLC 1-2 (SEQ ID NO: 62) (antibody, V domains shown)
VH: B3 VH with E46K, T74S, A97T
VL: B3 VL with R44K, L45P, L46W, I57V, F70Y
- effect on aPTT (FIG. 8) [2]: modest effect

- kass [1]: 920000 M⁻¹ s⁻¹
- kdiss [1]: 0.00099 s⁻¹
B5: SB 257731: humanized anti-Factor IX mAb, heavy chain F9HZHC 1-1 (SEQ ID NO: 52), light chain F9HZLC 1-3 (SEQ ID NO: 78) (antibody, V domains shown)
VH: B3 VH with E46K, T74S, A97T
VL: MGWSCIILFLVATATGVHSQIVLTQSPATLSLSPGERATLSCRASSSVNYMHWYQQRPGQAPKPWIYATSNLASGVPARFSGSGSGTDYTLTISSLEPEDFAVYYCQQWSINPRTFGGGTKVEIK
- effect on aPTT (FIG. 8) [2]: modest effect

- kass [1]: 750000 M⁻¹ s⁻¹
- kdiss [1]: 0.00018 s⁻¹
B6: SB 249415: humanized anti-Factor IX mAb, heavy chain F9HZHC 1-1 (SEQ ID NO: 52), light chain F9HZLC 1-1 (SEQ ID NO: 57) (antibody, V domains shown)
VH: B3 VH with E46K, T74S, A97T
VL: B3 VL with R44K, L45P, L46W, I57V
- effect on aPTT (FIG. 8) [2]: modest effect

- kass [1]: 1.1e+06 M⁻¹ s⁻¹
- kdiss [1]: 0.0012 s⁻¹
B7: SB 257732: humanized anti-Factor IX mAb, heavy chain F9HZHC 3-0 (SEQ ID NO: 89), light chain F9HZLC 3-0 (SEQ ID NO: 99) (antibody, V domains shown)
VH: MGWSCIILFLVATATGVHSQIQLVQSGSELKKPGASVKVSCKASGYTFTNYGMNWVRQAPGQGLEWMGWINTRNGKSTYVDDFKGRFVFSLDTSVSTAYLQISSLKAEDTAVYFCTREGNMDGYFPFTYWGQGTLVTVSS
VL: MGWSCIILFLVATATGVHSQIVLTQSPSSLSASVGDRVTITCRASSSVNYMHWYQQKPGKAPKPWIYATSNLASGVPSRFSGSGSGTDYTLTISSLQPEDFATYYCQQWSINPRTFGGGTKLEIKRTVV
